# In a protein production outcome set (Wang et al. 2014):
# Test: label from the status in PepcDB records
row,Sequence,protein production
1,MDTVTLARAFFGSSLAFHIIFATLGVGLSLMIFISEILYHWKKDSDYAIMAKRWTKAFAILLGVAIPTGTIVGVQISLLWPGFAKIVGQVISVPFQIEIFAFFLEALFMSIYVYAADKLPPFMRLISLFFVMLGATASAVLITSANTWMNTPAGFSMNPDGSVFNVDPWKAFFNPSFGTSAFHVVITAYATGAAVIASIAGFKLLKKNLSTREIAYHKKGLLLGLVVTFITGATMWLSGHESAIALHKHSPEKLASAEALFETTSHAPLSIGGVVDPNTLELNYALEIPNMLSLLVGLDPSTVVKGLKEFPQETWPPFYTHTLFNLMVGTAAFTFAVAAIALLYWYFVYRKKGTELPKWLLWGAAACGPIMMLGIEFGWIFSCSGRQPWTIYGMQRTVDASTRADFVGPLFVLFIILYIGLAILTVIVLRTFFRRHPLKNDLQHQGGDSHA,failed
2,MDVAIELTTRVGVLLFFIAICHVIAQRVRLPDPIILTAAGVTIGFGYVALEHVAPAFAANTIAPFLSPAMPPEAYLWIFLPPILFQAAIEVDSSGFVADLGPILLLAIGAVVAATLSVGAVAYLTSGQGLIACLLLGAIVSTTDPSTVIGLFQSSGAPARLIRLVEGESLFNDAAAIAITTLLTGVISVMPTHDAAHFPLAQFLLSLLGGCAVGWLVGVVLVFVSGAMRSPPFAEYSLSLALPNLIYPFAERVLHVSGVAAVVCAGLVVGRIMLSRRPASHVKLFRQLWLYQATIASASVLLLATAHVPSLLDDLRMIDVVILLLVLVAAVASRFGILSVSMPMMSRIGICKPLPVSHQLLIAWGGVRGPVTLTLAICLARNQDLAPDTRHFAAAMAAGFVLLNLFFNGLTLKLFARWLGVAAPGGRRPAAIEVD,failed
3,MDVEKIPGSVCLVAPHANANPTWPADLAWVKQVLFRMGIKVVATLTHRTPIAEIENIASAETSLLLSHDAGQKAADYLSATFGIEQVCKGIPLEHHHHHH,failed
4,MDVIKISPRGYCYGVVDAMVIAKNASLDKSLPRPIYILGMIVHNKHVTDAFEEEGILTLDGSNRLDILKQVDKGTVIFTAHGVSPEVRRIAEEKGLVAIDATCPDVTKTHNLILEMKEKGYHVIYIGKKGHPEPEGAVGVAPEIVHLVETEEDVKNLDIQSEKLIVTNQTTMSQWDVHDIMELVKEKYPHVEYHQEICLATQVRQEAVSEQAKKADLTIVVGDPKSNNSNRLAQVSEEIAGTKAYRIGDLSELKLEWLKGVNTVAVTAGASTPTPITKEVIRFLEQFDHE,failed
5,MDVKKDENSILENMKQEINHSLKEEAQEEEEILKKRISSHPLYGLLLHSHLNCLKVCSGDFDSPEIMNTADDLALSKLSLHPDSSSEATSSELDQFMVLFFFSPCQNIFTQQKTTFHVLLFFPLQINLTFKYSKFILPRKKQ,failed
6,MDVKQTLEKAIALRQNKRYQESNAILVTLCKEHAHDPQILYQCGWSFDVLGLEAQAVPYYEKAIASGLQGKDLAECYLGLGSTFRTLGEYRKAEAVLANGVKQFPNHQALRVFYAMVLYNLGRYEQGVELLLKIIAETSDDETIQSYKQAILFYADKLDETWKALEHHHHHH,not failed
7,MDVSNKDAKRTDTIILANFDPITKEAKLISIPRDTRVKIGGKSQKINAAYPIGGEKLVKQLVGNILGVKVDYVVKVDYEGFRGIIDAIGGIDMYIEQDMNYDDPGQDLHIHFNKGETVHLDGKKAEEFFRWRKNNDGTGLVNGDVDRIKNQQKFINAVIDKVLSVSTITKIDSIAEILNKNIETNIPLDVTVAYGLKGLETDKNNIKMMTLPGEGKYVGNVSYYIPDEKATKELRSQLNSSNLSGRKNVIPSAARGDLSIKVLNCTKINGLAANVQKQLNENGYDKVDLEHHHHHH,not failed
8,MDVSVFLAALGISLLELTEAGAIAAIYHNIYKNNLPFIYAVLGVAIVLIPTFTLGKLIYLVPLNYVLLASAVILFYFGYRLIRSARRSFKGIKKKGGEEKEEGLSVVFTVSAIEGLEASLVILALIPQSYSSAVMGAILASVLVVILTAILKSQVARIRLPHLKFVLSALLFSLGTLWISEVVFDIPDLILPLFFLAYLGINYVIIKI,failed
9,MDVYHDGACPEVKPVDNFDWSQYHGKWWEVAKYPSPNGKYGKCGWAEYTPEGKSVKVSRYDVIHGKEYFMEGTAYPVGDSKIGKIYHSRTVGGYTKKTVFNVLSTDNKNYIIGYSCRYDEDKKGHWDHVWVLSRSMVLTGEAKTAVENYLIGSPVVDSQKLVYSDFSEAACKVNNSNWSHPQFEK,not failed
10,MDYFLLHGGGNADRQSGGVHRWLAGAIRELGMLVAETSGHDAFLEQIGAVHPEVVFVRFASSPARIDVPEHDQKLGEGTDAIGEATQLVAQLTRLFPGLPLVAVGSASDGRAMLAALRAGVKDFIDVDGAPAEAVRVVRRLLAERASAEPTRRGRVLAILGARPGVGTTTLASNLATLVRRTSGGDVMLLDLGQPLRDGALYLNVPANFHFVEAVRNLRRFDQVFVQTALSRHPNGLAVLPLPVSLAEMRDISFSEALGLLNRLRTFFDLQVVDLGGFNNIDFIAQLVKAADDVMLVTEQSVGAIVSAAELMQELKKREIDRERLHLILSKFDARLSLDAEQIGVRLEIPSVLTVPSRRRALVVASNQGAMLAETHPIDPYVRAIAGIVQTLGYTQPGERAPGVAGWMAGMRARLGERFRRKPTEPAELDLRTTERNAT,failed
11,MDYGMYFFEHVTPYETLVRRMERVIASGKTPFQDYFLFESKGFGKVLILDKDVQSTERDEYIYHETLVHPAMLTHPEPKRVLIVGGGEGATLREVLKHPTVEKAVMVDIDGELVEVAKRHMPEWHQGAFDDPRAVLVIDDARAYLERTEERYDVVIIDLTDPVGEDNPARLLYTVEFYRLVKAHLNPGGVMGMQAGMILLTHHRVHPVVHRTVREAFRYVRSYKNHIPGFFLNFGFLLASDAFDPAAFSEGVIEARIRERNLALRHLTAPYLEAMFVLPKDLLEALEKETMVSTDQNPFYVTPEGEARQAPYKG,not failed
12,MDYKPLAKEILKNIGTKSNVRSITHCVTRVRFVLNDESQANDEVIRDLDGVLDVVKQGGQYQVVIGPSVGSVYDAIIDVANFSDNVINSSEIAAPTSDETEEKGFLNKALGLISSIFIPVLGLLSGAGMIKAILSLCTVTGLLTAKSGTYIILSALGDTLFYFFPIVVGWSAARKFGLKEIYGVTLGAFLVYPTLATAASSTAVTTIFKGTIFALKYKMTFLGIPVALQSYSSTVIPIIIIVWFASYVYKYCDKVIPDVLKMVFVPFFTLLIAGVVSLIVIGPIAMILQNILSDTVLWLVGLNKGIAGFLLGFFWSILVMFGLHWAVIPFFAIDVAHYGYDVINPLIFAGGLAVLGSAIGVAIRARDERVKSMSVAAAISAFFGINEPALYGVLIPRKKVLLTSFLAAGIGGAIAGFSGSKLYSFGASGILGLPCFINPKGIDAGFIGLCISGIVAFVFALIAALIAGAKKDAKSKPAERHLAEHSDVYAPVAGESFDLTTVHDDVFSKLVLGDGIAVKPSDGKVYAPVTGIVRVAYPTGHAVGLASDDGEEVLIHIGIDTVNLEGKHFKMHVAQGMRVKKGDLLVDFDEAAISAAGYDTTVMMVVTKSERLKSVMPTQFGPVTKDTKVLDVELQSNSVESVTAVATND,failed
13,MDYKVSVLIVCYNQEKYIKKALESVLSQKVNFNYEIVVCDDCSSDRTFNILQEYKSKLGSKLNLIRNYKNLGITLNYKNGFKNCKGEYIAVLEGDDYWIQKSKLKRQVSFLESNRDCSLVFNKIVLDYGDEKINNLIYPFNDIRKKFSARELVRSNFIQNFSCCMYRKSSIRKLRESIYDMVVYDWMFNMAVAQFGLIGYIPNYMTSHRILKSGLWSGKSKMENLQMISKCIDQYDSFFKYKYRKEFSQNKQEVLQALRRLVMVNENGLEHHHHHH,not failed
14,MDYMERPKLGLIVREPYASLIVDGRKVWEIRRRKTRHRGPLGIVSGGRLIGQADLVGVEGPFSVEELLAHQEKHLAEEAFLRAYAKDEPLYAWVLENAFRYEKPLHVPRRPGRVMFVDLSEVRW,not failed
15,MDYNQTVLSHLQKFWKHHDIKGFTWTLGRIVEELPDFQVFQVIPNHEDEPWVYVSSGIGQFLGQEFFIISPFETPEHIETLAMLASASMHYPDQFQLGKTVNIGRPWVEQSSFRHFLISLPYPYGQELEYMDNVRFFWLLPITQTERLFLNTHSVEELETKFDEAGIDYLDINRASTVWQAG,not failed
16,MDYREVDSTSEFVCRLEHGGDWRAQIEAFADEQGIDAGFFYGLGAVQDAELMFYDQDRTEYDSLTFDEPLEVAACMGNISHFDGERFAHTHAVLSRPDGEAVAGHLNAGTVWAGELYVRGFDTELQREHDEPTDLDLWNILEHHHHHH,failed
17,MDYSNTYGAYGGGGFLPESPARTGGNASTRFGVGSGSSLRDQRRSLLPVRVADLVHAVHDPVTNTFVLRDENEHQSITISEGSIVKVVAYVEELREQPLDLLWLLDDRSGEMIWARMASTSSSSLAALEQSGILVRVFGQLLEVDGRRVLNVRAIRKADGEVELRYHENLCQLSKLQLIRGYPTAGNALAGASSSPASPKAGPSKAVHRSSLGSGAPKEMAQQAPGLEIPAAFPPEHFKVLKCIREETARNRDAMLTDIAQRIALSTTKVRGICDALQNEGHIYCTLDDDTFRASSS,not failed
18,MEAARSMTFSECAALYIKAHRSSWKNTKHADQWTNTIKTYCGPVIGPLSVQDVDTKLIMKVLDPIWEQKPETASRLRGRIESVLDWATVRGYREGDNLEHHHHHH,failed
19,MEAAVNAAEAYSHIRAVMGMVVGLSLARLLTGLAGFVQHPKKERIYLLHIGWVAFLFLMLVHFWWWEHRLSATGHVLDFGAFLFLILFCSLFYFLCVLLFPTDMKEYKGYEDYFFSRKSWFFAFLAALFVTDVGDTLLKGHDYLASLGPEYLIRTAIYVVLFTAAAFIDNRRFHRFLVIFALVYQIAWIFRTYDLLA,failed
20,MEAEEIIGLLKKGDLEKAKDALSKEIDNLSDEELKEILEVAESVAKEKEDIELLKLVVYYYAEFFGIDKLEEFEGIAKEKGYEGLMHLADLYSLLGYPEKALDIYRELLKTDLIKEKEHIGEIYYGIATIHDELQEYDKALEAINEAVKAFKESNNVEKLHQAEVYRAYITFENGDRDKAKEILAGLLPHVTNREIKAQIHLVFKEIFEDEENYEAAIQESLYSLIEGIDTEVFDLAFDGLIDLIWELILEDKFEEIYKSMPMFKVAIPSLKDFFEGVRRIAMYREGKIGREEVSEILMKVKDERLVSILEFLGEAEV,failed
21,MEAFGGFVMDEQAIQVENVFLEFLKSFRLDANKPELYYEAEIEAIRGGESTMMYIDFSHVMGFNDALQKAIADEYLRFEPYLRNACKRFVIEMNPSFISDDTPNKDINVSFYNLPFTKRLRELTTAEIGKLVSVTGVVTRTSEVRPELLYGTFKCLDCGSVIKNVEQQFKYTQPTICVSPTCLNRARWALLRQESKFADWQRVRMQETSKEIPAGSLPRSLDVILRHEIVEQARAGDTVIFTGTVVVIPDISALAAPGERAECRRDSSQQKSSTAGHEGVQGLKALGVRDLSYRLAFIANSVQIADGSRNTDMRNRQNDSNEDDQQQFTAEELDEIQQMRNTPDYFNKLVGSMAPTVFGHQDIKRAVLLMLLGGVHKTTHEGINLRGDINVCIVGDPSCAKSQFLKYTAGIVPRSVYTSGKSSSAAGLTATVAKEPETGEFCIEAGALMLADNGICCIDEFDKMDIKDQVAIHEAMEQQTISITKAGIQATLNARTSILAAANPVGGRYDKSKPLKYNVNLPPAILSRFDLVYVMIDDPDEVTDYHIAHHIVRVHQKHEAALSPEFTTVQLKRYIAYAKTLKPKLSPEARKLLVESYVALRRGDTTPGTRVAYRMTVRQLEALIRLSEAIARSHLEILVKPSHVLLAVRLLKTSVISVESGDIDLSEYQDANGDNMDDTDDIENPVDGEEDQQNGAAEPASATADNGAAAQKLVISEEEYDRITQALVIRLRQHEETVNKDSSELPGIRQKELIRWFIDQQNEKKKYSSQEQVKLDIKKLRAIIESLVCKEGHLIVLANEQEEAAEAEETKKKSSQRDERILAVAPNYVIE,failed
